How the values were obtained:
[1] = Particle size analysis of fragmented particles (Microtrac small particle analyzer); assay type: physicochemical; details: for mean particle diameter / size distribution for the effective diameters: ammonium bicarbonate buffer, ethyl acetate, ultrasonic irradiation; for mean particle diameter after five minutes sonication: atomized into liquid nitrogen, lyophilized, sonicated in ethanol 5 min; for Particle Size: sonicated 5 min
Protocol: A 50 mg sample of the lyophilized microspheres was suspended in 5 ml of 100 percent ethanol solution and cooled in an ice water bath to 0° C. With continuous cooling, the HRP porous particles were then exposed to an ultrasonic probe (Virtis Company Inc., Virsonic 300) for different times. Samples were analyzed for particle size diameter on a Microtrac Model 7995 Small Particle Analyzer (Leeds and Northrup).
The hemoglobin particles were suspended in ethyl acetate and fragmented by subjecting them to ultrasonic irradiation with cooling by an ice bath.

[2] = Diameter of particles by light microscopy; assay type: physicochemical
Protocol: A 250 mg sample of the enzyme horse radish peroxidase (HRP) (Sigma Chemical Co, St. Louis, Mo.) was dissolved in 10 ml of a 0.05 M phosphate buffer solution having a pH of 7.2. The solution was atomized through an ultrasonic nozzle (SonoTek Corp., Model 8700-60MS) into a stirred container of liquid nitrogen. The liquid nitrogen containing the frozen atomized spheres was next placed in a −80° C. freezer until the liquid nitrogen evaporated, about one to two hours. The frozen protein spheres were then placed in a lyophilizer (Virtis Company Inc., Model 10-MR-TR) for at least 12 hours to produce porous particles.
The sample prepared from 100 mg ammonium bicarbonate/ml was suspended in ethyl acetate and fragmented by ultrasonic irradiation.
This was ultrasonicated to form frozen particles which were lyophilized according to the procedure of Example 1.

[3] = Heme absorption, second derivative spectra of processed hemoglobin; assay type: physicochemical, bovine; details: homogenized particles stored in ethyl acetate for seven days, dissolved in 0.2 M sodium phosphate pH 7.7
Protocol: The homogenized hemoglobin particles were stored in ethyl acetate for seven days, after which the solvent was decanted and the hemoglobin dried under vacuum at room temperature. The resulting solid was dissolved in 0.2 M sodium phosphate pH 7.7, and its heme absorption compared with that of freshly dissolved bovine hemoglobin, as well as with hemoglobin denatured in 6 M guanidinium chloride, using a Hewlett Packard diode array spectrophotometer. In order to accentuate spectral features, the second derivative of absorption with respect to wavelength was obtained for each sample.

[4] = Particle size analysis of fragmented particles (Microtrac small particle analyzer); assay type: physicochemical; details: ethyl acetate
[5] = Scanning electron micrographs (SEM) of particles; assay type: physicochemical
Protocol: 125 mg bovine hemoglobin dissolved in 5 ml 0.05 M ammonium bicarbonate was formed into particles by spraying and lyophilization, according to the procedure of Example 1. […] A control solution containing only ammonium bicarbonate was also sprayed and lyophilized as described in Example 1.
The hemoglobin particles were suspended in ethyl acetate and fragmented by subjecting them to ultrasonic irradiation with cooling by an ice bath. When the resulting particles were subjected to particle size analysis using a Leeds & Northrup Microtrac small particle analyzer, the mean particle diameter was 3.7±2.8 micrometers.

[6] = HRP enzyme activity, rate of oxidation of p-anisidine; assay type: biochemical
Protocol: The activity of the HRP was determined after the lyophilization step and after the ultrasonication step. The method used to determine the enzyme activity is based upon the rate of oxidation of p-anisidine and is described in detail in The Worthington Enzyme Manual, Worthington, D. D., (ed.), Worthington Biochemical Corp., Freehold, N.J., p. 254 (1988).

[7] = SOD enzyme activity, inhibition of the reduction of nitro-blue tetrazolium by the superoxide anion; assay type: biochemical
Protocol: The activity of the SOD was determined after the lyophilization step and after the ultrasonication step. The method used to determine the enzyme activity is based upon the ability of SOD to inhibit the reduction of nitro-blue tetrazolium by the superoxide anion. This assay is described in detail by Winterbourne, et al., in “The Estimation of Red Cell Superoxide Dismutase Activity,” J. Lab. Clin. Med., 85, 337 (1975). After the lyophilization step, the SOD had 94% of its original activity. After the ultrasonication step, the SOD has 91% of its original activity.

NCC(=O)O [Glycine]
mean diameter after ultrasonication ([1]; […] solution in deionized water, ultrasonication for 4 min): 3.2±1.9 micrometers | mean diameter of porous particles ([2]; light microscopy, after lyophilization, before ultrasonication): 24.4±14.6 micrometers

C[C@]12CC[C@H]3[C@@H](CCC4=CC(=O)CC[C@@]43C)[C@@H]1CC[C@@H]2O [testosterone, reference compound]
mean diameter of resulting particles ([1]; […] solution in 1,4 dioxane): 5.4±2.9 micrometers

bovine hemoglobin
mean particle diameter / size distribution for the effective diameters [1]: 3.7±2.8 micrometers | mean particle diameter after five minutes sonication [1]: 1.8±1.3 micrometers | mean particle diameter after 5 minutes sonication ([1]; sprayed into liquid argon before lyophilization): 3.6±2.8 micrometers | second derivative heme absorption spectrum compared with fresh hemoglobin [3]: identical | size distribution for the effective diameters ([4]; after 80 sec of homogenization): 7.2±3.7 micrometers | particle diameter size distribution ([4]; after 300 sec of homogenization): 6.6±3.7 micrometers | length of flat irregular plates (SEM of sonicated particles) [5]: ~1.0 micrometer | thickness of flat irregular plates (SEM of sonicated particles) [5]: 0.1 micrometer

catalase
mean particle diameter after five minutes sonication [1]: 4.5±3.3 micrometers

dextran
mean particle size as a function of solution concentration ([1]; 20, 10, 5, 1, 2.5 and 0.5 percent solutions, ethanol, ultrasonicated five minutes): smallest particles are produced using 0.5 to 5% dextran solutions

heparin [reference compound]
mean particle diameter after five minutes sonication [1]: 6.9±4.0 micrometers

horse radish peroxidase [HRP]
original activity retained after each step of the particle size reduction process ([6]; after the lyophilization step and after the ultrasonication step, phosphate buffer pH 7.2, ethanol): ≥ 90% | activity retained during the process ([6]; ammonium bicarbonate buffer, ethyl acetate, ultrasonic fragmentation (Example 13)): 90% | mean particle size as a function of time of ultrasonication ([1]; after 100 seconds ultrasonication): under five | mean particle diameter / size distribution for the effective diameters [1]: 2.8±2.2 micrometers | Particle Size ([1]; citrate/phosphate buffer pH 5.2): 2.9 ± 2.1 µm | Particle Size ([1]; phosphate buffer pH 7.2): 3.5 ± 2.8 µm | Particle Size ([1]; tris buffer pH 9.1): 6.2 ± 3.7 µm | diameter of the porous spheres after lyophilization ([2]; before sonication, range): 25-35 micrometers

superoxide dismutase [SOD]
mean particle diameter after five minutes sonication [1]: 2.7±2.1 micrometers | original activity after the lyophilization step ([7]; after lyophilization): 94% | original activity after the ultrasonication step ([7]; after ultrasonication): 91%

From patent publication US6569458B1, “Process for producing small particles of biologically active molecules” (Alkermes Controlled Therapeutics, Inc., priority 1989, dated 2003)
